B1: mouse TIGIT-Fc-LIGHT chimeric protein (Fc fusion)
chain: TIDTKRNISAEEGGSVILQCHFSSDTAEVTQVDWKQQDQLLAIYSVDLGWHVASVFSDRVVPGPSLGLTFQSLTMNDTGEYFCTYHTYPGGIYKGRIFLKVQESSDDRNGLAQFQTAPLGVPRDCGCKPCICTVPEVSSVFIFPPKPKDVLTITLTPKVTCVVVDISKDDPEVQFSWFVDDVEVHTAQTQPREEQFNSTFRSVSELPIMHQDWLNGKEFKCRVNSAAFPAPIEKTISKTKGRPKAPQVYTIPPPKEQMAKDKVSLTCMITDFFPEDITVEWQWNGQPAENYKNTQPIMDTDGSYFVYSKLNVQKSNWEAGNTFTCSVLHEGLHNHHTEKSLSHSPGKIEGRMDLHQRLGDIVAHLPDGGKGSWEKLIQDQRSHQANPAAHLTGANASLIGIGGPLLWETRLGLAFLRGLTYHDGALVTMEPGYYYVYSKVQLSGVGCPQGLANGLPITHGLYKRTSRYPKELELLVSRRSPCGRANSSRVWWDSSFLGGVVHLEAGEEVVVRVPGNRLVRPRDGTRSYFGAFMV
notes: also called mTIGIT-Fc-LIGHT; murine TIGIT-Fc-LIGHT chimeric protein
B2: mouse SIRPα-Fc-4-1BBL chimeric protein (Fc fusion)
chain: KELKVTQPEKSVSVAAGDSTVLNCTLTSLLPVGPIKWYRGVGQSRLLIYSFTGEHFPRVTNVSDATKRNNMDFSIRISNVTPEDAGTYYCVKFQKGPSEPDTEIQSGGGTEVYVLAKPSPPEVSGPADRGIPDQKVNFTCKSHGFSPRNITLKWFKDGQELHHLETTVNPSGKNVSYNISSTVRVVLNSMDVHSKVICEVAHITLDRSPLRGIANLSNFIRVSPTVKVTQQSPTSMNQVNLTCRAERFYPEDLQLIWLENGNVSRNDTPKNLTKNTDGTYNYTSLFLVNSSAHREDVVFTCQVKHDQQPAITRNHTVLGLAHSSDQGSMQTFPGNNATHNWNVPRDCGCKPCICTVPEVSSVFIFPPKPKDVLTITLTPKVTCVVVDISKDDPEVQFSWFVDDVEVHTAQTQPREEQFNSTFRSVSELPIMHQDWLNGKEFKCRVNSAAFPAPIEKTISKTKGRPKAPQVYTIPPPKEQMAKDKVSLTCMITDFFPEDITVEWQWNGQPAENYKNTQPIMDTDGSYFVYSKLNVQKSNWEAGNTFTCSVLHEGLHNHHTEKSLSHSPGIIEGRMDRTEPRPALTITTSPNLGTRENNADQVTPVSHIGCPNTTQQGSPVFAKLLAKNQASLCNTTLNWHSQDGAGSSYLSQGLRYEEDKKELVVDSPGLYYVFLELKLSPTFTNTGHKVQGWVSLVLQAKPQVDDFDNLALTVELFPCSMENKLVDRSWSQLLLLKAGHRLSVGLRAYLHGAQDAYRDWELSYPNTTSFGLFLVKPDNPWE
notes: also called mSIRPα-Fc-4-1BBL

Legend:
murine recombinant HVEM = target: T1, murine recombinant HVEM (mouse, UniProt Q80WM9 39-206); experiment: ELISA on recombinant murine targets
T1 construct: also called mouse HVEM
T1 sequence (looked up): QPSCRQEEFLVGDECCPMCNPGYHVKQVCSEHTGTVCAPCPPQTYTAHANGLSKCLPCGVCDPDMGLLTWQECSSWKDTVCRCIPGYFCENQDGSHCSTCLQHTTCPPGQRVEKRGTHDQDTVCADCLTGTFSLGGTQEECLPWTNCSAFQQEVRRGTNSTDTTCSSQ

CHOK1/mLTβR = target: T2, CHOK1/mLTβR (mouse, UniProt P50284); experiment: flow cytometry on CHOK1/mLTβR cells
T2 construct: expressed on the surface of stably transfected CHO-K1 cells; also called cell surface mouse LTβR on CHO-K1/mLTβR cells
T2 sequence (P50284 31-415 limits assumed): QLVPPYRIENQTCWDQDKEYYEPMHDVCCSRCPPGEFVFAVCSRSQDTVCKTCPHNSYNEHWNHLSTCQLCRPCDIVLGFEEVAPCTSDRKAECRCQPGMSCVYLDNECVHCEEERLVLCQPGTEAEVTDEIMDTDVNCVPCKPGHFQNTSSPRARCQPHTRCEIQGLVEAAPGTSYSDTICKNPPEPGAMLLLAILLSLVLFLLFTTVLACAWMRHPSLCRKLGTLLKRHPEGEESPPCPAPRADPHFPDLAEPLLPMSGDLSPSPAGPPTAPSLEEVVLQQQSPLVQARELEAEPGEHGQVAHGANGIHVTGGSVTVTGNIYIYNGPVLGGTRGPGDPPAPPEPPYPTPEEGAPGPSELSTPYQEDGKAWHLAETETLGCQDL

anti-H&L = target: T3, anti-H&L; experiment: ELISA: capture anti-H&L; detection anti-Fc-HRP
T3 construct: also called capture antibody of the Fc ELISA panel

murine recombinant LTβR = target: T4, murine recombinant LTβR (mouse, UniProt P50284 31-223); experiment: ELISA: capture mLTβR-His; detection anti-mLIGHT-Bio
T4 construct: also called mouse LTβR; printed LOUR
T4 sequence (P50284 31-223): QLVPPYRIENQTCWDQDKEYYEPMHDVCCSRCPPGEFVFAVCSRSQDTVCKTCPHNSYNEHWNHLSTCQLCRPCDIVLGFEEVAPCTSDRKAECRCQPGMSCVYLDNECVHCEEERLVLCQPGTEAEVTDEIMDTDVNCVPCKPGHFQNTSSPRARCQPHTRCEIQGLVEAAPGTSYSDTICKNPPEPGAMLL

murine recombinant PVR = target: T5, murine recombinant PVR (mouse); experiment: ELISA: capture mCD115/PVR (so in the source); detection anti-Fc-HRP
T5 construct: also called mouse PVR

mouse 4-1BB-His = target: T6, mouse 4-1BB-His (mouse, UniProt P20334 24-187); experiment: MSD: coat m41BB-His (Acro); detection anti-mouse Sulfo (MSD)
T6 construct: not shown: His tag
T6 sequence (looked up): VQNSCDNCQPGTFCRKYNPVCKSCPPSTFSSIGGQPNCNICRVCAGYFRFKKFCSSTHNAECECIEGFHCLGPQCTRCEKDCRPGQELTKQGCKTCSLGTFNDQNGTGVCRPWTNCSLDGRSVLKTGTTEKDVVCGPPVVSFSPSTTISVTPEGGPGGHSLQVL
Procedure: (§1) Mouse 4-1BB-His was coated on plates and increasing amounts of the mSIRPα-Fc-4-1BBL, or mSIRPα-Fc-CD40L chimeric proteins were added to the plates for capture by the plate-bound mouse 4-1BB-His. The mSIRPα-Fc-CD40L chimeric protein was used as a negative control for binding to mouse 4-1BB. Binding of the chimeric proteins to 4-1BB-His was detected using an anti-mouse-SULFO-TAG antibody. Binding was assayed using an electrochemiluminescence (ECL) readout.

mouse CD47-His = target: T7, mouse CD47-His (mouse, UniProt Q61735 19-140, limits assumed); experiment: MSD: coat mCD47-His (Acro); detection anti-mouse Sulfo (MSD)
T7 construct: not shown: His tag
T7 sequence (looked up): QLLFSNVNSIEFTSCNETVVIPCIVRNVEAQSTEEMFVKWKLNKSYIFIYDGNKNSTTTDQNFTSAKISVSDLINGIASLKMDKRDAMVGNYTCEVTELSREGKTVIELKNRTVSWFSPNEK
Procedure: as §1, with “CD47-His” for “4-1BB-His”, “mSIRPα-Fc-4-1BBL” for “mSIRPα-Fc-4-1BBL,”, “CD47-His.” for “4-1BB-His.”, “positive” for “negative”, “CD47.” for “4-1BB.”, “anti-mouse SULFO-TAG” for “anti-mouse-SULFO-TAG”

mouse CD47-Fc = target: T8, mouse CD47-Fc (mouse, UniProt Q61735 19-140, limits assumed); experiment: MSD dual-binding sandwich: coat mCD47-Fc (Acro); detect m41BB-His (Acro); anti-His Biotin + Streptavidin Sulfo
T8 construct: not shown: Fc; not described
T8 sequence (looked up): T7 sequence (looked up)
Procedure: To understand whether the mouse SIRPα-Fc-4-1BBL chimeric protein can contemporaneously bind to mouse 4-1BB and CD47, mouse CD47-Fc was coated on plates and increasing amounts of the mSIRPα-Fc-4-1BBL, or PD-1-Fc-4-1BBL chimeric proteins were added to the plates for capture by the plate-bound mouse CD47-Fc. The PD-1-Fc-4-1BBL chimeric protein was used as a negative control. Then, mouse 4-1BB-His was added to the plate for capture by any chimeric protein, which was captured in turn by the mouse CD47-Fc protein. An anti-His-biotin and streptavidin-SULFO-TAG were used for detection. Binding was assayed using an electrochemiluminescence (ECL) readout.

Row | Binder | binding result (murine recombinant HVEM) | binding result (CHOK1/mLTβR) | EC50 (read off the curve) (anti-H&L) [nM] | binding result (murine recombinant LTβR) | EC50 (read off the curve) (murine recombinant PVR) [nM] | EC50 (mouse 4-1BB-His) [nM] | EC50 (mouse CD47-His) [nM] | EC50 (mouse CD47-Fc) [nM]
1 | B1 | binds | binds | ~4 | binds | ~5 | – | – | –
2 | B2 | – | – | – | – | – | 0.674 | 0.609 | 22.4
